# From US20110150896A1 (published 2011)
# B1: 2A4 (antibody, V domains shown)
# VH: DVQLQESGPGLVKPSQSLSLTCTVTGYSITSDYAWNWIRQFPGNKLEWMGYITYNGDTSYNPSLKSRISIARDTSKNQFFLQLNSVTTEDTATYSCAGSRNYYGAWFAYWGQGTLVTVSA
# VL: DIVMTQSHKFMSTSIGDRVSINYKASQYVGTTVAWYQQKSGHSPKLLIYRASTRHTGVPDRFTGSGSGTDFTLNISNVQSEDLADYFCQQYCSSPLTFGAGTYLEVKR
# B2: 1F3 (antibody, V domains shown)
# VH: QVQLQQPGAELVKPGASVKLSCKASGYSFTSYWMHWVKQRPGQGLEWIGEINPSNGRTNYNEKFNTKATLTVDTSSSTAYMQLSSLTSEDSAVYYCVLYGNYVVYYTMDYWGQGTSVTVSS
# VL: QIVLTQSPTIMSASLGEEITLTCSASTSVSYMEWYQQKSGTSPKILIYTTSKLASGVPSRFSGSGSGTFYSLTISSVEAEDAADYYCHQWRNYPFTFGSGTKLEIKR
# Target: full-length PcrV protein (recombinant, 1-294) (in the biotin-labeled form: PEO-maleimide activated biotin on the inserted cysteine)
# Test: SPR
row,Binder,Kd [pM]
1,B1,350
2,B2,370
